Measured values: patent US20240101981A1 (LINNO PHARMACEUTICALS, published 2024)

Target: T1, human transferrin (human, UniProt P02787 20-698)
T1 construct: mature; also called hTf; native human transferrin
Assay: ELISA, biotinylated human transferrin on streptavidin plate, anti-hARSA detection
Experimental: A 96-well plate was coated with streptavidin (0.1 μg/mL, 100 μL/well) and incubated overnight at 4° C.; after washing the plate three times with buffer PBST, the 96-well plate was blocked with 200 μL of PBST containing 1% bovine serum albumin (BSA) for 1 hour at room temperature. The plate was then washed three times with PBST, added with biotinylated human transferrin (1 μg/mL, 100 μL/well) and incubated at room temperature for 1 hour. […] The plate was then washed three times with PBST, added with goat anti-hARSA antibody (R&D, AF2485) (100 μL/well) at a concentration of 0.125 ug/mL to each well and incubated at room temperature for 1 hour. The plate was then washed three times with PBST, added with 100 μL anti-goat IgG-HRP to each well and incubated at room temperature for 0.5 hour, followed by the same washing steps aforementioned. The plate was then added with 100 μL/well of TMB substrate solution and incubated at room temperature for 15 minutes. The reaction was then stopped by adding 100 μL/well of the stop solution, and the absorbance was read at 450 nm using an ELISA reader.

T1 sequence (P02787 20-698): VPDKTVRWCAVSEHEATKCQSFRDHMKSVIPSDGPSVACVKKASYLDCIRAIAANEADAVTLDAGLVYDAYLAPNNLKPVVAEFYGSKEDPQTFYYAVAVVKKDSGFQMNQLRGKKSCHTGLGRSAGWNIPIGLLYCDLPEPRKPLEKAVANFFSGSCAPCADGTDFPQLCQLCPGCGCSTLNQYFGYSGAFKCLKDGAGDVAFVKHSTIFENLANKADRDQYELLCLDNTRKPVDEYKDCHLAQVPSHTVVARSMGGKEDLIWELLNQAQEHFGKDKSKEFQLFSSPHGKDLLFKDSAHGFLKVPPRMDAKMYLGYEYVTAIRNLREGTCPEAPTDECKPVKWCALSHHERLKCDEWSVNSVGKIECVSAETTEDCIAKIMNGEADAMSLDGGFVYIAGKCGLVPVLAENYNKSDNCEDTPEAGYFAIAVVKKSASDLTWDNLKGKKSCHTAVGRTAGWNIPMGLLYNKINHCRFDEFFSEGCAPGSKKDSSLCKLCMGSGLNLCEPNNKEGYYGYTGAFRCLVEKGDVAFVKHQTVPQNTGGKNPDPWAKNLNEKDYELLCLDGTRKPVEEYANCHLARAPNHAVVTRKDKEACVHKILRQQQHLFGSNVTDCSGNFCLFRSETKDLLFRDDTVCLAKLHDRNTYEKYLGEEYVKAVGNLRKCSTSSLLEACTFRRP

Binder	binding result
hARSA-9056VHH-his (other, Expressed in HEK293F cells) RPPNIVLIFADDLGYGDLGCYGHPSSTTPNLDQLAAGGLRFTDFYVPVSLCTPSRAALLTGRLPVRMGMYPGVLVPSSRGGLPLEEVTVAEVLAARGYLTGMAGKWHLGVGPEGAFLPPHQGFHRFLGIPYSHDQGPCQNLTCFPPATPCDGGCDQGLVPIPLLANLSVEAQPPWLPGLEARYMAFAHDLMADAQRQDRPFFLYYASHHTHYPQFSGQSFAERSGRGPFGDSLMELDAAVGTLMTAIGDLGLLEETLVIFTADNGPETMRMSRGGCSGLLRCGKGTTYEGGVREPALAFWPGHIAPGVTHELASSLDLLPTLAALAGAPLPNVTLDGFDLSPLLLGTGKSPRQSLFFYPSYPDEVRGVFAVRTGKYKAHFFTQGSAHSDTTADPACHASSSLTAHEPPLLYDLSKDPGENYNLLGGVAGATPEVLQALKQLQLLKAQLDAAVTFGPSQVARGEDPALQICCHPGCTPRPACCHCPDPHAGGGGSGGGGSGGGGSEVQLVESGGGLVQPGGSLRLSCAASGHAYGGNYMGWFRQAPGKGLEGVAVLYTGGGSTYYADSVKGRFTISEDNSKNTVYLQMNSLRAEDTAVYYCALALGSARWYTSSLDARAYNIWGQGTLVTVSSGGGGSHHHHHH	binds
hARSA (enzyme, Control enzyme without the VHH; also called rhARSA; hARSA-his) RPPNIVLIFADDLGYGDLGCYGHPSSTTPNLDQLAAGGLRFTDFYVPVSLCTPSRAALLTGRLPVRMGMYPGVLVPSSRGGLPLEEVTVAEVLAARGYLTGMAGKWHLGVGPEGAFLPPHQGFHRFLGIPYSHDQGPCQNLTCFPPATPCDGGCDQGLVPIPLLANLSVEAQPPWLPGLEARYMAFAHDLMADAQRQDRPFFLYYASHHTHYPQFSGQSFAERSGRGPFGDSLMELDAAVGTLMTAIGDLGLLEETLVIFTADNGPETMRMSRGGCSGLLRCGKGTTYEGGVREPALAFWPGHIAPGVTHELASSLDLLPTLAALAGAPLPNVTLDGFDLSPLLLGTGKSPRQSLFFYPSYPDEVRGVFAVRTGKYKAHFFTQGSAHSDTTADPACHASSSLTAHEPPLLYDLSKDPGENYNLLGGVAGATPEVLQALKQLQLLKAQLDAAVTFGPSQVARGEDPALQICCHPGCTPRPACCHCPDPHA	no binding
